Kd data for one molecule are collected here from paper PMC6428754, “Peptidoglycan Remodeling Enables Escherichia coli To Survive Severe Outer Membrane Assembly Defect” (mBio, 2019).

In the test the target is T1, oligohistidine-tagged PBP1B (E. coli, UniProt P02919 1-844).
T1 construct: PBP1B, bifunctional peptidoglycan synthase (glycosyltransferase and DD-transpeptidase) of Escherichia coli; source: purified
T1 sequence (looked up): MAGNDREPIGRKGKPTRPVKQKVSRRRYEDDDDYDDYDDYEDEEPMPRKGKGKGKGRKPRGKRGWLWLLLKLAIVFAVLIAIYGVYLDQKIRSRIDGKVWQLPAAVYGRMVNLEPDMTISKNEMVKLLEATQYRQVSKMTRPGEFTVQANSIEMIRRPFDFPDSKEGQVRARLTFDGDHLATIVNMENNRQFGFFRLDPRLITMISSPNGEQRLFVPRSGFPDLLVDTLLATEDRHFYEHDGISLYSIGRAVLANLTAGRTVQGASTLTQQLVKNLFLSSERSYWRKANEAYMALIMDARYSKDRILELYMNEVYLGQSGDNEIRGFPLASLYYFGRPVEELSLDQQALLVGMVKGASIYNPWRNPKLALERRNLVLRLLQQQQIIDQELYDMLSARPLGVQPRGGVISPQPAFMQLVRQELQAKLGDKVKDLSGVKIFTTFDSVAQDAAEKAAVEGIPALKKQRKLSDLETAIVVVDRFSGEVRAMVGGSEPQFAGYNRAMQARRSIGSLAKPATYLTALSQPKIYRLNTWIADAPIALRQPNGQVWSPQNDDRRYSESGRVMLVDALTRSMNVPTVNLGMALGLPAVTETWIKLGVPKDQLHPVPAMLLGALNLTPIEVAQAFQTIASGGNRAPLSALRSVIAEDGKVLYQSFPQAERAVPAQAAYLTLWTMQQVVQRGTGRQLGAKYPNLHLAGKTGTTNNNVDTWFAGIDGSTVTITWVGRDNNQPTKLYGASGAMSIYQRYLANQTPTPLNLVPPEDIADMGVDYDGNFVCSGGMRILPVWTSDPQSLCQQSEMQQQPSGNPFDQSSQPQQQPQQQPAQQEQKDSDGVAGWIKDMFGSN
Description: MST; microscale thermophoresis curves; means ± SD from three independent experiments; which partner was labelled is not told (Text S1). Conditions: both partners purified. Background: In MST a laser heats a spot of the sample, and binding alters the fluorescence response.

B1: LdtD (LD-transpeptidase, formerly YcbB), untagged (enzyme, E. coli, UniProt P22525 1-615, looked up)
chain: MLLNMMCGRQLSAISLCLAVTFAPLFNAQADEPEVIPGDSPVAVSEQGEALPQAQATAIMAGIQPLPEGAAEKARTQIESQLPAGYKPVYLNQLQLLYAARDMQPMWENRDAVKAFQQQLAEVAIAGFQPQFNKWVELLTDPGVNGMARDVVLSDAMMGYLHFIANIPVKGTRWLYSSKPYALATPPLSVINQWQLALDKGQLPTFVAGLAPQHPQYAAMHESLLALLCDTKPWPQLTGKATLRPGQWSNDVPALREILQRTGMLDGGPKITLPGDDTPTDAVVSPSAVTVETAETKPMDKQTTSRSKPAPAVRAAYDNELVEAVKRFQAWQGLGADGAIGPATRDWLNVTPAQRAGVLALNIQRLRLLPTELSTGIMVNIPAYSLVYYQNGNQVLDSRVIVGRPDRKTPMMSSALNNVVVNPPWNVPPTLARKDILPKVRNDPGYLESHGYTVMRGWNSREAIDPWQVDWSTITASNLPFRFQQAPGPRNSLGRYKFNMPSSEAIYLHDTPNHNLFKRDTRALSSGCVRVNKASDLANMLLQDAGWNDKRISDALKQGDTRYVNIRQSIPVNLYYLTAFVGADGRTQYRTDIYNYDLPARSSSQIVSKAEQLIR
notes: LdtD (formerly YcbB), LD-transpeptidase of Escherichia coli; Printed as 'untagged LdtD'; source: purified
For the molecule B1, binding was characterised by a dissociation constant (Kd) of 112 nM.
